In the DeepSol protein solubility set:

Assay: soluble on expression in E. coli; label from the status in PepcDB or PDB records

Row | Sequence | soluble on expression in E. coli
1 | MGGSHHHHHHGMASALAMAPSPSLVQVYTSPAAVAVWEWQDGLGTWHPYSATVCSFIEQQFVQQKGQRFGLGSLAHSIPLGQADPSLAPYIIDLPSWTQFRQDTGTMRAVRRHLFPQHSAPGRGVVWEWLSDDGSWTAYEASVCDYLEQQVARGNQLVDLAPLGYNYTVNYTTHTQTNKTSSFCRSVRRQAGPPYPVTTIIAPPGHTGVACSCHQCLSGSRTGPVSGRYRHSMTNLPAYPVPQHPPHRTASVFGTHQAFAPYNKPSLSGARSAPRLNTTNAWGAAPPSLGSQPLYRSSLSHLGPQHLPPGSSTSGAVSASLPSGPSSSPGSVPATVPMQMPKPSRVQQALAGMTSVLMSAIGLPVCLSRAPQPTSPPASRLASKSHGSVKRLRKMSVKEATPKPEPEPEQVIKNYTEELKVPPDEDCIICMEKLSTASGYSDVTDSKAIGSLAVGHLTKCSHAFHLLCLLAMYCNGNKDGSLQCPSCKTIYGEKTGTQPQGKMEVLRFQMSLPGHEDCGTILIVYSIPHGIQGPEHPNPGKPFTARGFPRQCYLPDNAQGRKVLELLKVAWKRRLIFTVGTSSTTGETDTVVWNEIHHKTEMDRNITGHGYPDPNYLQNVLAELAAQGVTEDCLEQQ | not soluble
2 | MSLSFNADEVRFLIDNLPDIDAATGDLALTKKTMISDVAALRARFGEHGRAVAELAGARRSVAGKLPVDWLMCHDSAQQATPMQVSGVRARRLVTALGEGTTAVDVTCSIGTEGHAVGQVGMGYIGSDLDQARLLMARYNLGGGVDKHPPHLLRADALAPAVTGADVIIADPARRAGGRRITDPAQLLPPLPDLLTAWEGHAMAVKCAPGLDFSGWTGLVSLVSVDGGVKEACLYTPDLADGETREAVILRGDRMDRITDALDDAPGEQLAREPGEFIIDPDGAVVRAGLVRHYAVREGLWMLDERIAYLTGDRIPAGTSGFRFIEQVPLKKLKGALTAHGAGSVEILVRGVDVDPDQLRKKLGLKGDRAMSVVITRIGSAGVALVCGAREWNGEGHHHHHH | soluble
3 | MGHHHHHHSHSGGRNKIRKILDKTRFSILPPKLFSDGGLSQSQDDSIVGTRHCRHSLAIMPIPGTLSSSSPDLLQPTTSMLDFSNPSDIPDQVIRVFKVDQQSCYIIISKDTTAKEVVFHAVHEFGLTGASDTYSLCEVSVTPEGVIKQRRLPDQFSKLADRIQLNGRYYLKNNMETETLC | not soluble
4 | SEADASVDMFSKVLEHQLLQTTKLVEEHLDSEIQKLDQMDEDELERLKEKRLQALRKAQQQKQEWLSKGHGEYREIPSERDFFQEVKESENVVCHFYRDSTFRCKILDRHLAILSKKHLETKFLKLNVEKAPFLCERLHIKVIPTLALLKDGKTQDYVVGFTDLGNTDDFTTETLEWRLGSSDILNYSGNLMEPPFQNQKKFGTNFTKLEKKTIRGKKYDSDSDDD | soluble
5 | MSLDDLAQLANEVKASFVRLVNEDANSHMIGTAMSTIGRAFTQRIIELVEAELGAAPLPYCFVAFGSMGRDEQLIVTDQDNALILDDRYDVQQHGAYFAQFAELVCRGLDRCGYPLCDGEIMASNPKWRMTRKEWETCFADWIDNPNPQALLNASIFFDLDGVYGRTKWAEQLSGFIVRRARRNQRFLACLARNALNRTPPLGFFKNFVMEKDGRHNNSINLKRRGTAPLADLIRVHALAAGSRAKNSFERLDDVIEAGLLPQGKGKDLRDALEFIAMVRIRHQAIDVEQEGHHHHHH | not soluble
6 | GEDPAIQVTGARGASVDMSTLDAVTTALDKEHLSHKSIAFENGSILVRFNDTDTQISARDVISEALGKDKIVALNLAPSTPDWLEAIGASPLKLGLDLRGGVHFLMEVDMDAAMEKLVGQQEEAFRSELRDAKIRYRAIRPSGKEGVEVLLRDEEQLAEAKRTLTKNHPDMNFVESDSNGRYALIATFTEQRLQEIRNYAVEQNITILRNRVNELGVAEPLVQRQGASRIVVELPGVQDTARAKEILGATATLEFREVDDKADLAAAANGRAPAGSEIKQDRDGRPVVLKKRVILSGASITDASSSVDEYGRPQVNISLDSEGGNKMSAFSKKNIGKLMATVFAEYKDSGRKTPEGKVILTKHEEVINQATIQSALGRNFRITGIDSAAEAHN | not soluble
7 | MGSDKIHHHHHHMHGELGKENELDGEIFRQGPVEIRDSRQKVIHSGFSPESQIIEGINAIIKLAHSEEESNLVGIMMSHFMFESIHPFYDGNGRTGRYLLGIQLSKILSPATALTMSSAINQFRNKYYKAFHAVEHRLNRGDGTPFVISMLELLIAAQEGLIENIKQRIDFLASLEDAIKTLRGTNSFKNHQINLLYILGQIQLFGKDETLSLESAAKFLKVSKATATRYFRTLREMELVHEVSKRPLRFALTDKGREIVGLEVKI | not soluble
8 | MKVNVSCSSVQTTIDILEENQGEDESILTLGQLRDRIATDNDVDVETMKLLHRGKFLQGADDVSLSTLNFKENDKIIVMGGKNALVDDAGFKMLMQYEKHNLSNLQKAYDLNLRDVADLERGFLEKPKQVEMGKKLEKKVKYFNEEAERHLETLDGMNIITETTPENQAKRNREKRKTLVNGIQTLLNQNDALLRRLQEYQSVLNGDIPE | soluble
9 | MGSSHHHHHHMTYEYILVRYGEMTTKGKNRSKFVSTLKDNVKFKLKKFPNIKIDATHDRMYIQLNGEDHEAVSERLKDVFGIHKFNLAMKVPSELEDIKKGALAAFLQVKGDVKTFKITVHRSYKHFPMRTMELLPEIGGHILENTEDITVDVHNPDVNVRVEIRSGYSYIMCDERMGAGGLPVGVGGKVMVLLSGGIDSPVAAYLTMKRGVSVEAVHFHSPPFTSERAKQKVIDLAQELTKYCKRVTLHLVPFTEVQKTINKEIPSSYSMTVMRRMMMRITERIAEERNALAITTGESLGQVASQTLDSMHTINEVTNYPVIRPLITMDKLEIIKIAEEIGTYDISIRPYEDCCTVFTPASPATKPKREKANRFEAKYDFTPLIDEAVANKETMVLQTVEVVAEEEKFEELF | soluble
10 | MIFRKFLNFLKPYKMRTDPIIFVIGCTGTGKSDLGVAIAKKYGGEVISVDSMQFYKGLDIATNKITEEESEGIQHHMMSFLNPSESSSYNVHSFREVTLDLIKKIRARSKIPVIVGGTTYYAESVLYENNLIETNTSDDVDSKSRTSSESSSEDTEEGISNQELWDELKKIDEKSALLLHPNNRYRVQRALQIFRETGIRKSELVEKQKSDETVDLGGRLRFDNSLVIFMDATPEVLEERLDGRVDKMIKLGLKNELIEFYNEHAEYINHSKYGVMQCIGLKEFVPWLNLDPSERDTLNGDKLFKQGCDDVKLHTRQYARRQRRWYRSRLLKRSDGDRKMASTKMLDTSDKYRIISDGMDIVDQWMNGIDLFEDISTDTNPILKGSDANILLNCEICNISMTGKDNWQKHIDGKKHKHHAKQKKLAETRT | not soluble
11 | SRLSRIDLAVDDFHGLFGREYAKKAYSDDAFRTARAGRAPNGGERLVSEPNGKIINESFEVGSRESRIYWRIYNKAAQLGLDMHWFRNEVELKDMPIDVLLNIEGYFAGLCAYSASIINSLPVKVVTKKRQVALDIHSRIKWARRQVGKTLFDISKHFGGDLERVFGALISKEIHDDSLNLPDSYM | not soluble
12 | KVYSLRLNQKRNEKPSIFANENVRKALAYALDKKSLVDNILADGSKEIYGYIPEKFVYNPETNEDFRQEAGALVKTDAKKAKEYLDKAKAELNGDVAIELLSRDGDSDRKVAEFIQGQLQETLPGLTINVKTVPLNNAIELMRKGDYELSVGMWGPDYQDPMTFLESSVSGNRMNYSSPTFDQLIEEATTKYANEPETRWQTLIKAEKVLVEEDAALIPLYQEA | not soluble
13 | MMKKMAIACALLSSVVASSVWADAASSLKSRLDKVSSFHATFTQKVTDGSGAAVQEGQGDLWVKRPNLFNWHMTQPDESILVSDGKTLWFYNPFVEQATATWLKDATGNTPFMLIARNQASDWQQYNIKQDGDNFVLTPKASNGNLKQFTINVGRDGTIHQFSAVEQDDQRSAYQLKSQQNGAVDPSKFTFTPPQGVTIDDQRK | not soluble
14 | MSLYRVFEALDELSAIVEEARGVPMTAGCVVPRGDVLELIDDIKDAIPGELDDAQDVLDARDSMLQDAKTHADSMVSSATTEAESILNHARTEADRILSDAKAQADRMVSEARQHSERMVADAREEAIRIATAAKREYEASVSRAQAECDRLIENGNISYEKAVQEGIKEQQRLVSQNEVVAAANAESTRLVDTAHAEADRLRGECDIYVDNKLAEFEEFLNGTLRSVGRGRHQLRTAAGTHDYAVREGHHHHHH | soluble
15 | AIASFITNPSIFSGLKLSNAQRKVKSDLECIRKSKLFQRKRIVPERRRLGLVACGTEEDRTHQRSQWGGEDSDYFGRDPRKETEFWMEHAKEVLESKEVADAVEAHKKSGSSNLTEEQKAWLEFARSITPKPEDEE | soluble
